Measured values as given in patent US5650283.

Experiments:
[1] = system: human AhR + ARNT expressed in yeast (Homo sapiens); assay: cell_activity; conditions: lacZ induction over background by betaNF or alphaNF; none with AHR or ARNT only
[2] = system: LexA(1-202)-AHRNΔ166 chimera (synthetic construct); assay: cell_activity; conditions: average lacZ induction over background, agonist dependent

Substance	activity [1] [fold]	activity [2] [fold]
DRE2-DRE3 lacZ reporter (pDRE23-Z)	12	–
eight LexA operator lacZ reporter (pSH18-34)	–	90
